# Test results published in PMC5587793.
# B1: CoriUP oligonucleotide (dsDNA)
# DNA 1: GCAGGGCAAGTGGTTAAGCATATGTTAACGGATGATCCACAGG
# DNA 2: CCTGTGGATCATCCGTTAACATATGCTTAACCACTTGCCCTGC
# modifications: 3 bp up-replication mutation
# Tests used:
# [1] = molecular target: T1, His-GapR (Caulobacter crescentus (NA1000?)) (UniProt B8H4R9); test: EMSA
# T1 sequence: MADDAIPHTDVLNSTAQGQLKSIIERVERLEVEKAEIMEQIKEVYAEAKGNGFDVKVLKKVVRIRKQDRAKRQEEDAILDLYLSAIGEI
# His-GapR = molecular target: T2, His-GapR (Caulobacter crescentus, UniProt B8H4R9 1-89); test: EMSA
# T2 sequence: T1 sequence
molecule,measurement,setting,value
Cori DNA (EMSA of Figure S6),Kd,[1],10 nM
B1,binding result,His-GapR,binds
